Laboratory results: the nanobody polyreactivity screen of Harvey et al. (2022)

Experiment: yeast display, Sf9 membrane polyspecificity reagent, FACS + sequencing; frameworks hold sequencing errors
Outline: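 After 36–48 hours of galactose induction, yeast (Saccharomyces cerevisiae BJ5465) displaying a synthetic nanobody library were stained at 4 °C for 1 hour with 10% biotinylated, detergent-solubilized Sf9 membrane reagent. Streptavidin microbeads enriched the stained cells before FACS sorting into low and high (top ~1%) gates on anti-HA and streptavidin fluorescence. Each clone's polyreactivity label reflects its gate of origin.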

Sequence	polyreactivity (PSR sort gate)
QVQLVESGGGLVQAGGSLRLSCAASGFIFRFNAMGWYIQAPGKSRELVAAISWSGSSTYYADSVKGRFTISRDNAKNTVYLQMTSLKPEDTAVYYCATSSLYYTIVKGDFYYWGQGTQVTVSS	high polyreactivity
QVQHVESGGGLVQAGGSLRLSCAASGSTFKYYAMGWSRQAPGKERELVAAISLSGGRTSYADSVKGRFTISRDNAKNTVYLQMNSLKPVDTAVYYCAAASYFPRFNYWGQGTQVTVSS	high polyreactivity
QVQLVESGGGLLQAGGSLRLSCAASGFTFGFYGRGWYRQAPGKERELVAAISYSGGTTYYADSVKARFTIARDNAKNTVYLQMNCLKPQDTAVNYCNTQSRETEDADYWGQGTQVTVSS	high polyreactivity
QVQLVESGGGLVQAGGSLRLSCAASGSTFGRYVMGRYRPAPGKERELVAAISGSGGSTYYADSVKGRFTISRDNAKNTVYLQMNSLKPEDTAVYYCAARVAHYEYYWGQGTQVTVSS	high polyreactivity
QVQLVESGGGLVQAGGSLRLSCAASGRTFSIYAMGCYRQAPGKEREFVAAIRDRGTSTYYADSVKGRFTISRDNAKNTVYLQMNSLKPEDTGVFYCAAVRPYKYQDRDYWGQGTQVTVSS	high polyreactivity
QVQLVESGGGLVQAGGSLRLSCAAYGITFDANAMGWYRQAPGKERELVARISSGGSTNYADSVKGRFTISRDNAKNTVYLQMNSLKPEDTAVYYCAAERIARPTFDYWGQGTQVTVSS	low polyreactivity
QVQLVESGGGLVQAGGSLRFSCAASGSSFGANTMGWYRQAPGKERELVAGITSGARTYYADSVKGRFTISRDNAKNTVYLQMNSLKPEDTAVYYCAAKYAWRRYGYWGQGTQVTVSS	high polyreactivity
QDQLVESGAGLVQAGRSLRLSCAASGSIFRWYAMGWYRQAPGKERELVAAISTSGGNTYYADSVKGRFTISRDNAKNTVYLEMKSLIPEDTAVYYCNALWYRSLYYRYDYWGQVTQVTVSS	high polyreactivity
QVQLVESGGGLVQAGCSLRLSCAASGRIFWMNTMGRYRQAPGKERELVAAISFRSDDTYYADSVKGRFTISRDIAKNTVYLQMKSLKPEDTAVYYCNKAWFPYYFYRFDYWGQGTQVTVSS	high polyreactivity
QVQLVESGGGLVQAGGSLRLSCAASGRTFGQNTMGWYRQAPGIERELVAAINWSGGSTYYADSVKGRFTISRDNAKNTVYLQMNSLKPEDTAVYYCAVRGYWGQGTQVTVSS	low polyreactivity
QVQLVESGGGLVQAGGSLRLSCAGSGFTFGKNAMGWYRQAPGKERELVAANSGRGGRTFYADSVKGRFTISRDNAKNTVYLQMNSLKPEDTADYYCAAQRYYDNQYPYEYWGQGTQVTVSS	high polyreactivity
QVQLVESGGGLVQAGGSLRLSCAASGITFKYYAMGWYRQAPGKERELVAAITRGGSTYYADSVKRRFTISRDNAKTTVYLQMNSLKPVDTAVYYCNKARTYELYWGQGTQVTVSS	high polyreactivity
QVQLVESGGGLVQAGGSLRLSCAASGSMFYKNAMVWYRQAPGKEREMVAAINSVGSTDYADSVKGRFTISRDNAKNTVYLQMNSLTPEDTAVYYCAATNLFTIIDYDYWGQGTQVTVSS	low polyreactivity
QVQLVESGGGLVQAGGSLRLSCAASGRIFPTYAMGWYRQAPGKERELFAGITSGGRTNYADSVKGRFTISRDNAKNTVYLQMNSLKPEDTAVYYCAKRVWPRDQYGKRNPRMDYWGQGTQVTVSS	high polyreactivity
QVQLVESGGGLVQAGGSLRLSCAASGSTIYNYAMGSYRPAPGKVRELVASITWNGGSTYYADSVKGRFTISRDNAKNTVYLQMNSLKPEDTAVYYCAAEWTWTYPYDYWGQGTQVTVSS	low polyreactivity
QVQLVQSGGGLVQAGGSLRVSSAASGNIFAYYAKGWYSQAPGKERELVAAITDSGGNTFYADSVKGRFTISRDQAKNTVYLQMNSLKPEDTAVYYCAADTFYSYYDMDYWGQGTQVTVSS	low polyreactivity
QVQLVESGGGVVQAGGSLRLSCAASGFTFVYNAMGWYRQAPGKEREFVAAISGRGGSTYYADSVKGRFTISRDNAKNTVYLQMNSLKPEDTAVYYCATTYSWYYVPYKTHIYYYWGQGTQVTVSS	low polyreactivity
